Results from PMC8111768.

Legend:
[1] = target: VIC16 REFORMab SDIEALGA (G236A/S239D/A330L/I332E) (mouse | human); assay: SPR
[2] = target: VIC16 REFORMab EFTEA (G236A/S267E/H268F/S324T/I332E) (mouse | human); assay: SPR

Sequence of recombinant human FcγR3B (O75015 17-200): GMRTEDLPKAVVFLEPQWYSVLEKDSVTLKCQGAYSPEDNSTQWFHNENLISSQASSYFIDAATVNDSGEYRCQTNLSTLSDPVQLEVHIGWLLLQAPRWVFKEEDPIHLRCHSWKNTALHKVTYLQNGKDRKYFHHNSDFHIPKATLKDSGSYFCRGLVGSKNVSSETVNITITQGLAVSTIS

recombinant human FcγR3B (from UniProt O75015 17-200) (receptor)
Kd [1]: 3.2 µM
Kd [2]: 475 µM
